Test results from paper PMC6491607, “4-Coumarate 3-hydroxylase in the lignin biosynthesis pathway is a cytosolic ascorbate peroxidase” (Nature Communications, 2019).

Assays:
[1] = substrate: O=C(O)/C=C/c1ccc(O)cc1; experiment: HPLC of product, Hill fit; type: biochemical, Arabidopsis thaliana; conditions: H2O2 co-substrate, ascorbate 4 mM, sodium phosphate pH 6, 30 °C, hemin reconstituted
[2] = substrate: N[C@@H](Cc1ccc(O)cc1)C(=O)O; experiment: HPLC of product (L-DOPA), Hill fit; type: biochemical, Arabidopsis thaliana; conditions: H2O2 co-substrate, ascorbate 4 mM, sodium phosphate pH 6, 30 °C, hemin reconstituted
[3] = substrate: O=C1O[C@H]([C@@H](O)CO)C(O)=C1O; experiment: purified protein; conditions: H2O2 co-substrate, sodium phosphate pH 6, hemin reconstituted

B1: Arabidopsis C3H (4-coumarate 3-hydroxylase; cytosolic ascorbate peroxidase APX1) (Arabidopsis thaliana) (protein)
chain: MTKNYPTVSEDYKKAVEKCRRKLRGLIAEKNCAPIMVRLAWHSAGTFDCQSRTGGPFGTMRFDAEQAHGANSGIHIALRLLDPIREQFPTISFADFHQLAGVVAVEVTGGPDIPFHPGREDKPQPPPEGRLPDATKGCDHLRDVFAKQMGLSDKDIVALSGAHTLGRCHKDRSGFEGAWTSNPLIFDNSYFKELLSGEKEGLLQLVSDKALLDDPVFRPLVEKYAADEDAFFADYAEAHMKLSELGFADA
notes: full-length cDNA in pDEST17, N-terminal 6xHis tag kept, E. coli Rosetta, Ni-NTA purified, hemin reconstituted
**Q.** With B1 as the protein, how does the K0.5 [1] read?
**A.** 708 ± 154 µM

**Q.** And the kcat [1]?
**A.** 492 s–1

**Q.** What about the K0.5 [2] of the same protein?
**A.** 653 ± 127 µM

**Q.** What about the kcat [2] of the same protein?
**A.** 599 s–1

**Q.** What about the K0.5 [3] of the same protein?
**A.** 299 ± 63 µM

**Q.** What about the kcat [3] of the same protein?
**A.** 181 s–1
